From article PMC7556753, “A double role of the Gal80 N terminus in activation of transcription by Gal4p” (Life Science Alliance, 2020)
One block for each molecule: values may come before it.

Tests used:
[1] = biological target: T1, KlGal1p with N-terminal His6-tag (NHKlGal1p) (Kluyveromyces lactis) (UniProt P09608)
T1 sequence: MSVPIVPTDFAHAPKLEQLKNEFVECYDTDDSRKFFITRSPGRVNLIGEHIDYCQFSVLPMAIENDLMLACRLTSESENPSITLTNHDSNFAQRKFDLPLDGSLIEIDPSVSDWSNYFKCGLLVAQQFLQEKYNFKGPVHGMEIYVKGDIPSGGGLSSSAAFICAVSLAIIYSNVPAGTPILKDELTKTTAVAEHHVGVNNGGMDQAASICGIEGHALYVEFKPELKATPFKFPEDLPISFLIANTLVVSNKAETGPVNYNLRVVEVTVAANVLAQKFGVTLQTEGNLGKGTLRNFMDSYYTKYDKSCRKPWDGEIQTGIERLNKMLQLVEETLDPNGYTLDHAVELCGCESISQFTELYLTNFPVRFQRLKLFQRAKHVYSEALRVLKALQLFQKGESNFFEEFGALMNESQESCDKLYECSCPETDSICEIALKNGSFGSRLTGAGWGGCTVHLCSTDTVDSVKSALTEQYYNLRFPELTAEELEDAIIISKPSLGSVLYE

[2] = biological target: T1, KlGal1p with N-terminal His6-tag (NHKlGal1p) (Kluyveromyces lactis); experiment: galactokinase inhibition titration; 10 nM NHGal1p with increasing concentrations of NHKlGal80p or NHKlGal80-KR56Ap; ADP production coupled to pyruvate kinase and lactate dehydrogenase (NADH consumption); apparent KD from the decline in KlGal1p activity
[3] = biological target: T2, KlGal1p with N-terminal His6-tag (NHKlGal1p) (Kluyveromyces lactis, UniProt P09608 1-503); experiment: as above; conditions: both partners purified
T2 construct: KlGal1p, galactokinase (Gal1 protein) of Kluyveromyces lactis; also called NHGal1p; source: E. coli Rosetta (DE3)-pLys, from pETNHG1, purified as described in Anders et al, 2006b; not shown: His6, N-terminal, kept
T2 sequence (looked up): T1 sequence

relative galactokinase activity of KlGal1p with KlGal80-K5A/R6Ap (in % of the activity in the absence of KlGal80p or its peptide) [1]: 93.6%
Kd [2]: 3.1 µM
Molecule: KlGal80-K5A/R6Ap with N-terminal His6-tag (NHKlGal80-K5A/R6Ap) (from UniProt Q06433 1-457) (natural protein)

Kd [3]: 81 nM
B1: KlGal80p with N-terminal His6-tag (NHKlGal80p) (natural protein, Kluyveromyces lactis)
chain: MNNNKRSKLSTVPSSRPIRVGFVGLTSGKSWVAKTHFLAIQQLSSQFQIVALYNPTLKSSLQTIEQLQLKHATGFDSLESFAQYKDIDMIVVSVKVPEHYEVVKNILEHSSQNLNLRYLYVEWALAASVQQAEELYSISQQRANLQTIICLQGRKSPYIVRAKELISEGCIGDINSIEISGNGGWYGYERPMRSPEYLYDIESGVNLISNSFGHTIDVLQYITGSYFQKINAMISNNIPTQFLLDENGKRTKETISKTCPDHLLFQGILENGKVPVSCSFKGGTPVKKLTKNLVIDIHGTKGDLKIEGDAGFVEISNLVLYFYGIKNGNGSSNGTDNNGAAAIKDKEKVTKSPSPSTGTSEEEQTMEVFHLRNYNSVVGNILRIYESIADYHFLGKPESKSSRGPDDLFASTKFDKQGFRFEGFPTFKDAIILHRLIDAVFRSDKEEKTLDVSKIMI
notes: KlGal80p, Gal80 protein of Kluyveromyces lactis, wild type; 457 residues by the printed fragment aa 40-457; also called KlGal80p wild-type; source: E. coli Rosetta (DE3)-pLys, from pETNHG80, purified as described in Anders et al, 2006b; not shown: His6, N-terminal, kept

relative galactokinase activity of KlGal1p with the KlN17G80 peptide alone (in % of the activity in the absence of KlGal80p or its peptide) [1]: 99.4%
Molecule: MNNNKRSKLSTVPSSRP [peptide KlN17G80 (N-terminal 17 residues of KlGal80p)]
